Assay results from EP4696714A1, “PREPARATION METHOD FOR NANOBODY TARGETING TISSUE FACTOR AND CONJUGATE AND USE THEREOF” (Fudan University, priority 2023, dated 2024).
Like-named read-outs stand apart in the source and are kept apart here.

How the values were obtained:
[1] = molecular target: T1, TF on the surface of tumor cells (MDA-MB-231, HPAF-II, HCC1806, BxPC3, HCC44, PC9, H1975 and other … (UniProt P13726 33-295, limits assumed)); test: cell-based or functional assay
[2] = molecular target: T1, TF on the surface of tumor cells …; test: flow cytometry on MDA-MB-231 cells, PE-labeled secondary antibody
[3] = molecular target: T2, human TF extracellular domain protein (TF-ECD, Met 1-Glu 251) (human, UniProt P13726 33-251); test: ForteBio OCTET R2; His-tagged antigen on NTA sensor, nanobody-Fc 25-1.56 nM in solution, 25°C
T2 construct: range 1-251; also called human TF-ECD; not shown: His tag (protein captured on an NTA sensor as 'FDYKSD-01-His')

[4] = molecular target: T1, TF on the surface of tumor cells …; test: cell-based or functional assay; remark: listed apart in the source

Binder | Cell proliferation inhibition IC50, BxPC3 cells (MTS) [1] [ng/mL] | Cell proliferation inhibition IC50, HCC1806 cells (MTS) [1] [ng/mL] | Cell proliferation inhibition IC50, HPAF-II cells (MTS) [1] [ng/mL] | EC50 [2] [ng/mL] | further results
4-C05-FC1-MMAE (4-C05-FC1 coupled to mc-vc-MMAE) (Fc fusion, mc-vc-MMAE coupled to cysteine thiols after TCEP reduction; target DAR 4; positions not given) QVQLVESGGGLVQPGGSLRLSCAASGFTLDTYAIGWIRQAPGKEREGVSCISSTDGSTYYAASVKGRFTINRDNAKNTVYLQMNSLKPEDTAVYYCAAGPGTDCPLRFDYWGQGIQVTVSSEPKSSDKTHTCPPCPAPEFEGGPSVFLFPPKPKDTLMISRTPEVTCVVVDVSHEDPEVKFNWYVDGVEVHNAKTKPREEQYNSTYRVVSVLTVLHQDWLNGKEYKCKVSNKALPASIEKTISKAKGQPREPQVYTLPPSRDELTKNQVSLTCLVKGFYPSDIAVEWESNGQPENNYKTTPPVLDSDGSFFLYSKLTVDKSRWQQGNVFSCSVMHEALHNHYTQKSLSLSPGK | 8.6 | 14 | 7.7 |  | 
4-C05-FC1 (chimeric nanobody: 4-C05 VHH fused with human Fc mutant fragment FC1) (Fc fusion, built from the VHH and FC1) QVQLVESGGGLVQPGGSLRLSCAASGFTLDTYAIGWIRQAPGKEREGVSCISSTDGSTYYAASVKGRFTINRDNAKNTVYLQMNSLKPEDTAVYYCAAGPGTDCPLRFDYWGQGIQVTVSSEPKSSDKTHTCPPCPAPEFEGGPSVFLFPPKPKDTLMISRTPEVTCVVVDVSHEDPEVKFNWYVDGVEVHNAKTKPREEQYNSTYRVVSVLTVLHQDWLNGKEYKCKVSNKALPASIEKTISKAKGQPREPQVYTLPPSRDELTKNQVSLTCLVKGFYPSDIAVEWESNGQPENNYKTTPPVLDSDGSFFLYSKLTVDKSRWQQGNVFSCSVMHEALHNHYTQKSLSLSPGK |  |  |  | 700 | Kd [3]: 0.2 nM
4-C08-FC1-MMAE (4-C08-FC1 coupled to mc-vc-MMAE) (Fc fusion, mc-vc-MMAE coupled to cysteine thiols after TCEP reduction; DAR4 about 41.8% and DAR2 about 42.7% by HIC; positions not given) DVQLVESGGGLVQPGGSLRLSCAVSGFSLSSYDMNWYRQGPGKEREWVANIHSSGGYPDYADAVKGRFTISRDNAKNMVYLQMNSLKPEDTAVYYCNLPPSRRWYKDYWGQGTQVTVSSEPKSSDKTHTCPPCPAPEFEGGPSVFLFPPKPKDTLMISRTPEVTCVVVDVSHEDPEVKFNWYVDGVEVHNAKTKPREEQYNSTYRVVSVLTVLHQDWLNGKEYKCKVSNKALPASIEKTISKAKGQPREPQVYTLPPSRDELTKNQVSLTCLVKGFYPSDIAVEWESNGQPENNYKTTPPVLDSDGSFFLYSKLTVDKSRWQQGNVFSCSVMHEALHNHYTQKSLSLSPGK | 0.7 | 0.5 | 1 |  | 
4-C08-FC1 (chimeric nanobody: 4-C08 VHH fused with human Fc mutant fragment FC1) (Fc fusion, built from the VHH and FC1) DVQLVESGGGLVQPGGSLRLSCAVSGFSLSSYDMNWYRQGPGKEREWVANIHSSGGYPDYADAVKGRFTISRDNAKNMVYLQMNSLKPEDTAVYYCNLPPSRRWYKDYWGQGTQVTVSSEPKSSDKTHTCPPCPAPEFEGGPSVFLFPPKPKDTLMISRTPEVTCVVVDVSHEDPEVKFNWYVDGVEVHNAKTKPREEQYNSTYRVVSVLTVLHQDWLNGKEYKCKVSNKALPASIEKTISKAKGQPREPQVYTLPPSRDELTKNQVSLTCLVKGFYPSDIAVEWESNGQPENNYKTTPPVLDSDGSFFLYSKLTVDKSRWQQGNVFSCSVMHEALHNHYTQKSLSLSPGK |  |  |  | 50 | 
4-A02-ABD-MMAE (4-A02-ABD coupled to mc-vc-MMAE) (other, mc-vc-MMAE coupled to a cysteine thiol after TCEP reduction; DAR 1; position not stated) QVQLVESGGGLVQPGGSLSLSCTASETISSTYIMGWHRRSPGKERELVAVISGDGVTHYADFVKGRFVISRDNAKNAVYLKMNFLTPEDTAVYYCYAAGRWNHWGQGTQVTVSSGGGGSGGGGSGGGGSQHDEAVDANSLAEAKVLANRELDKYGVSDYYKNLINNAKTVEGVKALIDEILAALPAAACAAAHHHHHH |  |  |  |  | Cell proliferation inhibition IC50, BxPC3 cells (MTS) [4]: 0.3 ng/mL; Cell proliferation inhibition IC50, H1975 cells (MTS) [4]: 163 ng/mL; Cell proliferation inhibition IC50, HCC44 cells (MTS) [4]: 79.4 ng/mL; Cell proliferation inhibition IC50, HPAF-II cells (MTS) [4]: 1.3 ng/mL; Cell proliferation inhibition IC50, PC9 cells (MTS) [4]: 5 ng/mL
F1-A01-FC1-MMAE (F1-A01-FC1 coupled to mc-vc-MMAE) (Fc fusion, mc-vc-MMAE coupled to cysteine thiols after TCEP reduction; target DAR 4 (about 91% DAR4 by HIC); positions not given) EVQLVESGGGLVQAGGSLRLSCAASGRAFSAYAMGWFRQAPGKEREFVAAISWSGGSTYYADSVRGRFTISRDNTKNTVYLQMNSLKPEDTAVYYCNADSLLSLLDGSRGGPGTDSGSWGQGTQVTVSSEPKSSDKTHTCPPCPAPEFEGGPSVFLFPPKPKDTLMISRTPEVTCVVVDVSHEDPEVKFNWYVDGVEVHNAKTKPREEQYNSTYRVVSVLTVLHQDWLNGKEYKCKVSNKALPASIEKTISKAKGQPREPQVYTLPPSRDELTKNQVSLTCLVKGFYPSDIAVEWESNGQPENNYKTTPPVLDSDGSFFLYSKLTVDKSRWQQGNVFSCSVMHEALHNHYTQKSLSLSPGK | 1.2 | 4 | 0.7 |  | 
